Kd data for two molecules are collected here from article PMC9402891, “Case report: Biochemical and clinical phenotypes caused by cysteine substitutions in the epidermal growth factor-like domains of fibrillin-1” (Frontiers in Genetics, 2022).

The target in the experiment is T1, latent transforming growth factor beta-binding protein 1 fragment LTBP1^1141-1395 (LTBP1^cbEGF14cbEGF15) (human, UniProt Q14766-2 1141-1395).
T1 construct: LTBP1, residues 1141-1395: cbEGF14, TB3, EGF3 and cbEGF15 domains (the C-terminal region); the domains named are the C-terminal ones, which fits the short isoform; also called LTBP1 polypeptides
T1 sequence (looked up): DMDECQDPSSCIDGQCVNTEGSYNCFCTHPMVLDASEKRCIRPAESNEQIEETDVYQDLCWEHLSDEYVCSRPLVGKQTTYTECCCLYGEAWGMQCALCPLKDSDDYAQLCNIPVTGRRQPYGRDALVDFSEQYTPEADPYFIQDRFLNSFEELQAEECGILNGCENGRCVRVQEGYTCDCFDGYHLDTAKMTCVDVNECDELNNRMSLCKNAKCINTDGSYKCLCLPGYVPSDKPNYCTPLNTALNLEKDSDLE
The experiment in a line: SPR; immobilised partner not stated; running buffer 10 mM HEPES, 150 mM NaCl, 2 mM CaCl2, pH 7.4, 0.005% (v/v) Tween-20; regeneration 50 mM HCl; Biacore T200 (ProteOn system also named). Conditions: both partners purified. In general terms: Surface plasmon resonance follows binding to a sensor surface in real time, without labels.

B1: human fibrillin-1 fragment FBN1^113-287+C160Y (FBN1^E2cbEGF1+C160Y) (domain or fragment)
chain: not shown
notes: fibrillin-1, human, residues 113-287 (EGF2, EGF3, Hyb1 and cbEGF1 domains) with the patient mutation C160Y (c.479G>A) in EGF3; also called mutant recombinant fibrillin-1 polypeptides
Usually Kd stands for the constant that tells how readily two partners part at equilibrium. Turning to B1, the Kd is 1230 nM.

B2: human fibrillin-1 fragment FBN1^113-287 (FBN1^E2cbEGF1), wild type (domain or fragment)
chain: not shown
notes: fibrillin-1, human, residues 113-287: EGF2, EGF3, Hyb1 and cbEGF1 domains; one of them ends in L288, which may be a residue from the vector; also called wild-type fibrillin-1 polypeptides
In turn, B2 registered a Kd of 1530 nM.
